# ± gives the uncertainty stated by the source.
# Test: amyloid nucleation score (Sup35N fusion, yeast selection) (log enrichment); library NNK2; higher = more nucleation; inactive = no reads after selection
# Method in brief: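 Plasmid inserts were Illumina-sequenced at input and output from psi-negative yeast expressing Sup35N fused to peptides of 20 random codons. The yeast were induced with 100 μM copper sulfate for 24 hours and grown 7 days at 30°C on medium lacking adenine and uracil, and sequences with under 100 input reads were excluded. Nucleation score is the DiMSum log enrichment of output over input reads, centred on the mode score of non-aggregating sequences.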
row,Substance,amyloid nucleation score
1,RYYKCVLVWRHQGDSHIRAT,-0.412 ± 0.63
2,MLNYAYSL,1.42 ± 0.32
3,GFPLWSAGNCFALNAGRDAG,0.777 ± 0.19
4,ELKFSINWHW,4.4 ± 0.083
5,IFYYIDCCHITARYFQREGM,7.71 ± 0.081
6,ILWNLNY,-0.596 ± 0.4
7,YQYRDLLVIVRSTMKSNVSV,1.85 ± 0.1
8,VRSLKTHRFPFLCERSKFMG,-0.987 ± 0.38
9,SSRYSVIVVYMMGAPSLVGQ,inactive
10,FLARLI,0.45 ± 0.74
11,CVLHEPLYS,-0.432 ± 0.3
12,IYSEDGRAMASMIHVSRKHG,0.91 ± 0.43
13,FFGGYYYKLSQKLLRIAHYH,inactive
14,YVMREDLGPGSQADPTSGRS,0.912 ± 0.27
15,SGGRYTEATWECG,0.316 ± 0.65
16,RSLIKSRVIWGRKCSSRFIR,-0.64 ± 0.32
17,DKVFDLTQMGFL,inactive
18,DMQGYFCSLTLMFMFRPRIM,inactive
19,LVSADVCLGLMPSKSLGGRV,1.07 ± 0.54
20,FLSDNVISAY,-0.543 ± 0.38
21,TLDVIGIYLAGVGRFDGKSA,0.261 ± 0.49
22,PEHYSGATRLVH,0.42 ± 0.47

row,Substance,amyloid nucleation score
1,WLIRL,inactive
2,DGDLTLNWVRSRLPLKNFRG,0.144 ± 0.54
3,RIVQYIELRFTYQRKYNGAG,3.02 ± 0.057
4,LESMRRY,1.42 ± 0.27
5,LDYFFAAL,inactive
6,SWIIGVWIR,-0.287 ± 0.45
7,VVSYFCCLDCSLNAYS,9.384 ± 0.043
8,GSSWLRPALLVNAMIDWSRV,0.934 ± 0.36
9,INNDTVMVVHRRIHLLYYLM,inactive
10,KVGVVNYTTSLRFAGRDSSL,4.52 ± 0.091
11,GVSHMALSSARSFMITDLRS,3.44 ± 0.14
12,LWYSL,-0.558 ± 0.5
13,FLYIRRAVGKWFLVFVTLQQ,0.135 ± 0.48
14,AISSRLILLTPRAKSFVPSD,-0.247 ± 0.65
15,AGVWHSSLFITIQGVLNFGY,6.017 ± 0.02
16,NGKNILD,inactive
17,VSRSSKMMFFVDHLRYC,1.55 ± 0.58
18,CWQMRGKLFHS,0.983 ± 0.14
19,RNCACCEWL,4.58 ± 0.052
20,KPLCS,-0.58 ± 0.55
21,KGVRVQDTNVGIWAGKWGVV,0.883 ± 0.29
22,GRVWVW,0.718 ± 0.57

row,Substance,amyloid nucleation score
1,SRNNCRCD,-1.17 ± 1.1
2,AYYYTVLYYSFNMFRFVYTW,inactive
3,RLCLYN,-1.2 ± 0.38
4,IASISERLYCFAGPTIRCNR,0.338 ± 0.43
5,TFKILLRCGNNLFGSKAFDM,3.63 ± 0.05
6,GSASSCGCMMWQCKAICPNS,-0.4 ± 0.63
7,HDYVRLPEWFLSMGDHMYMC,-0.356 ± 1.1
8,LNFDLLTMFWT,0.182 ± 0.79
9,RATKYFLSFCSLKFKFCHYF,-0.658 ± 0.32
10,VIYKSLHRLVISRVNVFFPV,-0.263 ± 0.65
11,LSKRIDSRDMLGSGNHRCLL,-0.655 ± 0.64
12,LMNMSSRSTQCNNQG,-0.139 ± 0.55
13,GHVCKFHTLHWR,-1.17 ± 0.61
14,TGWTFWGGCRWM,4.57 ± 0.12
15,YVAVYSCLSRGCTLS,9.186 ± 0.077
16,QVFAHIAVSYGLLFFLHWEC,-0.331 ± 1
17,LLHDDVNTYLVRTVRR,0.322 ± 0.31
18,IKDKSHLRRIVLVTEYTRRD,0.179 ± 0.34
19,HSVLMAGSPTILRHRYRFKG,-0.723 ± 0.44
20,SEAEVSFWAFPEEYIEHKYM,inactive
21,VMWKEFLPGILCGCCKLGFS,-0.481 ± 0.33
22,RFVFQIVSIYISWMVIDKTR,-0.436 ± 0.78

row,Substance,amyloid nucleation score
1,LFSYQYCVVRMVLFIRL,-0.588 ± 0.53
2,RCCSVAYTIGLLTRRSLATG,0.451 ± 0.24
3,HFCYSNNRWVSGAFYVSRPT,1.78 ± 0.2
4,FSWFFSNITITMNHCLGVSR,inactive
5,FMYGTDSFGL,-1.08 ± 0.78
6,SGSIKHMNLVMV,-0.027 ± 0.2
7,VPRLILSIYFIICLTTQEAV,-0.24 ± 0.65
8,VICEIMYNKMCDTSLRSSLS,0.329 ± 0.65
9,FWPYRPCKLYVIYLR,inactive
10,VDQRRVHLDERDY,-0.371 ± 0.63
11,SMSPGVFLISGWPMVENVVF,inactive
12,VENRMVVLRSSIAIWVSRTV,0.955 ± 0.34
13,RHYLRRCEEDNCHPKYFVRY,-0.439 ± 0.76
14,LKGYSQVMRSSIGLWCFRKD,-0.547 ± 0.49
15,CRCVR,3.38 ± 0.077
16,VRNGWCTSWNSTAN,0.974 ± 0.52
17,ILYSSVVSLSCTLAKGNDYT,1.77 ± 0.4
18,WLIFLTVISISCCDQGVRF,7.401 ± 0.028
19,WLNLGMNLLLE,3.77 ± 0.093
20,IEGFRNDFLYVKISVGGAVV,inactive
21,WTSPGSLPKRALCGRVERYA,-0.53 ± 0.29

# Reference: the supplement of paper PMC12042874
